Measured values: the supplement of paper PMC10724198
± gives the standard deviation of the averaged measurements.

Experiments:
Saccharomyces cerevisiae [1] = experiment: protein stability index of tFT-peptide fusion (C-terminal peptide) (PSI (0-1 scale)); higher = more stable (slower turnover)
Method: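 MPS profiling in S. cerevisiae of the tFT-X12 degron library: putative degron peptides plus stable controls, 12 aa, fused to the C-terminus of a sfGFP-mCherry timer. Cells are FACS-sorted into 8 mCherry/sfGFP bins and deep-sequenced. PSI runs from 0 (unstable) to 1 (stable). Backgrounds are wild type, das1Δ and doa10Δ at 30 °C, and wild type, das1Δ, cdc34-1 and cdc53-1 at 37 °C; 2-3 technical replicates each.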

Saccharomyces cerevisiae [2] = experiment: as above; conditions: genetic background: wild type; temperature: 30 C
[3] = genetic background: cdc34-1, temperature: 37 C
[4] = genetic background: cdc53-1, temperature: 37 C
[5] = genetic background: das1 deletion, temperature: 30 C
[6] = genetic background: das1 deletion, temperature: 37 C
[7] = genetic background: doa10 deletion, temperature: 30 C
[8] = genetic background: wild type, temperature: 30 C
[9] = genetic background: wild type, temperature: 37 C
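Note: PSI is a weighted mean of sequencing reads over stability bins, variants kept only with over 10 reads, mCherry proximal and sfGFP distal, peptide attached via GGGS linker.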

Sequence: GGIVLLVRVCGP
- protein stability index (Saccharomyces cerevisiae [1]; [3]): 0.55 ± 0.016
- protein stability index (Saccharomyces cerevisiae [1]; [4]): 0.636 ± 0.0091
- protein stability index (Saccharomyces cerevisiae [1]; [5]): 0.436 ± 0.019
- protein stability index (Saccharomyces cerevisiae [1]; [6]): 0.6149 ± 0.0012
- protein stability index (Saccharomyces cerevisiae [1]; [7]): 0.389 ± 0.0083
- protein stability index (Saccharomyces cerevisiae [1]; [8]): 0.422 ± 0.018
- protein stability index (Saccharomyces cerevisiae [1]; [9]): 0.601 ± 0.025
- protein stability index (Saccharomyces cerevisiae [2]): 0.46 ± 0.011

Sequence: GGLLSQLLRSIG
- protein stability index (Saccharomyces cerevisiae [1]; [3]): 0.664 ± 0.026
- protein stability index (Saccharomyces cerevisiae [1]; [4]): 0.723 ± 0.019
- protein stability index (Saccharomyces cerevisiae [1]; [5]): 0.617 ± 0.024
- protein stability index (Saccharomyces cerevisiae [1]; [6]): 0.743 ± 0.0075
- protein stability index (Saccharomyces cerevisiae [1]; [7]): 0.2341 ± 0.0008
- protein stability index (Saccharomyces cerevisiae [1]; [8]): 0.279 ± 0.055
- protein stability index (Saccharomyces cerevisiae [1]; [9]): 0.5807 ± 0.0052
- protein stability index (Saccharomyces cerevisiae [2]): 0.425 ± 0.047

Sequence: GGRWRRRGFFFS
- protein stability index (Saccharomyces cerevisiae [1]; [3]): 0.6973 ± 0.0024
- protein stability index (Saccharomyces cerevisiae [1]; [4]): 0.72 ± 0.01
- protein stability index (Saccharomyces cerevisiae [1]; [5]): 0.702 ± 0.032
- protein stability index (Saccharomyces cerevisiae [1]; [6]): 0.709 ± 0.026
- protein stability index (Saccharomyces cerevisiae [1]; [7]): 0.627 ± 0.0095
- protein stability index (Saccharomyces cerevisiae [1]; [8]): 0.628 ± 0.01
- protein stability index (Saccharomyces cerevisiae [1]; [9]): 0.673 ± 0.014
- protein stability index (Saccharomyces cerevisiae [2]): 0.518 ± 0.097

Sequence: GGYCQMFFLYFR
- protein stability index (Saccharomyces cerevisiae [1]; [3]): 0.0593 ± 0.039
- protein stability index (Saccharomyces cerevisiae [1]; [4]): 0.0464 ± 0.018
- protein stability index (Saccharomyces cerevisiae [1]; [5]): 0.0923 ± 0.042
- protein stability index (Saccharomyces cerevisiae [1]; [6]): 0.0948 ± 0.0031
- protein stability index (Saccharomyces cerevisiae [1]; [7]): 0.575 ± 0.021
- protein stability index (Saccharomyces cerevisiae [1]; [8]): 0.0833 ± 0.0047
- protein stability index (Saccharomyces cerevisiae [1]; [9]): 0.0907 ± 0.031
- protein stability index (Saccharomyces cerevisiae [2]): 0.141 ± 0.021

Sequence: GHHLRVRVILTA
- protein stability index (Saccharomyces cerevisiae [1]; [3]): 0.4104 ± 0.00042
- protein stability index (Saccharomyces cerevisiae [1]; [4]): 0.435 ± 0.0077
- protein stability index (Saccharomyces cerevisiae [1]; [5]): 0.311 ± 0.026
- protein stability index (Saccharomyces cerevisiae [1]; [6]): 0.47 ± 0.013
- protein stability index (Saccharomyces cerevisiae [1]; [7]): 0.16006 ± 0.00015
- protein stability index (Saccharomyces cerevisiae [1]; [8]): 0.189 ± 0.019
- protein stability index (Saccharomyces cerevisiae [1]; [9]): 0.297 ± 0.013
- protein stability index (Saccharomyces cerevisiae [2]): 0.275 ± 0.054

Sequence: GICLVLVSDIWI
- protein stability index (Saccharomyces cerevisiae [1]; [3]): 0.579 ± 0.032
- protein stability index (Saccharomyces cerevisiae [1]; [4]): 0.558 ± 0.0064
- protein stability index (Saccharomyces cerevisiae [1]; [5]): 0.413 ± 0.026
- protein stability index (Saccharomyces cerevisiae [1]; [6]): 0.599 ± 0.018
- protein stability index (Saccharomyces cerevisiae [1]; [7]): 0.374 ± 0.04
- protein stability index (Saccharomyces cerevisiae [1]; [8]): 0.39 ± 0.014
- protein stability index (Saccharomyces cerevisiae [1]; [9]): 0.568 ± 0.029
- protein stability index (Saccharomyces cerevisiae [2]): 0.441 ± 0.018

Sequence: GIGYMFLNVWLV
- protein stability index (Saccharomyces cerevisiae [1]; [3]): 0.234 ± 0.036
- protein stability index (Saccharomyces cerevisiae [1]; [4]): 0.302 ± 0.0072
- protein stability index (Saccharomyces cerevisiae [1]; [5]): 0.246 ± 0.024
- protein stability index (Saccharomyces cerevisiae [1]; [6]): 0.4208 ± 0.00089
- protein stability index (Saccharomyces cerevisiae [1]; [7]): 0.0963 ± 0.011
- protein stability index (Saccharomyces cerevisiae [1]; [8]): 0.0848 ± 0.015
- protein stability index (Saccharomyces cerevisiae [1]; [9]): 0.122 ± 0.017
- protein stability index (Saccharomyces cerevisiae [2]): 0.153 ± 0.022

Sequence: GKGVFGGLFFLV
- protein stability index (Saccharomyces cerevisiae [1]; [3]): 0.667 ± 0.029
- protein stability index (Saccharomyces cerevisiae [1]; [4]): 0.741 ± 0.019
- protein stability index (Saccharomyces cerevisiae [1]; [5]): 0.623 ± 0.027
- protein stability index (Saccharomyces cerevisiae [1]; [6]): 0.755 ± 0.013
- protein stability index (Saccharomyces cerevisiae [1]; [7]): 0.182 ± 0.0027
- protein stability index (Saccharomyces cerevisiae [1]; [8]): 0.211 ± 0.021
- protein stability index (Saccharomyces cerevisiae [1]; [9]): 0.465 ± 0.011
- protein stability index (Saccharomyces cerevisiae [2]): 0.294 ± 0.0074

Sequence: GLGLIRTSRLLC
- protein stability index (Saccharomyces cerevisiae [1]; [3]): 0.609 ± 0.008
- protein stability index (Saccharomyces cerevisiae [1]; [4]): 0.695 ± 0.026
- protein stability index (Saccharomyces cerevisiae [1]; [5]): 0.627 ± 0.02
- protein stability index (Saccharomyces cerevisiae [1]; [6]): 0.718 ± 0.0034
- protein stability index (Saccharomyces cerevisiae [1]; [7]): 0.148 ± 0.027
- protein stability index (Saccharomyces cerevisiae [1]; [8]): 0.186 ± 0.029
- protein stability index (Saccharomyces cerevisiae [1]; [9]): 0.296 ± 0.027
- protein stability index (Saccharomyces cerevisiae [2]): 0.278 ± 0.037

Sequence: GLLAFVCISHTS
- protein stability index (Saccharomyces cerevisiae [1]; [3]): 0.497 ± 0.044
- protein stability index (Saccharomyces cerevisiae [1]; [4]): 0.542 ± 0.0086
- protein stability index (Saccharomyces cerevisiae [1]; [5]): 0.378 ± 0.033
- protein stability index (Saccharomyces cerevisiae [1]; [6]): 0.575 ± 0.019
- protein stability index (Saccharomyces cerevisiae [1]; [7]): 0.312 ± 0.0026
- protein stability index (Saccharomyces cerevisiae [1]; [8]): 0.344 ± 0.026
- protein stability index (Saccharomyces cerevisiae [1]; [9]): 0.5396 ± 0.0015
- protein stability index (Saccharomyces cerevisiae [2]): 0.458 ± 0.039

Sequence: GLPRRFLLLSVV
- protein stability index (Saccharomyces cerevisiae [1]; [3]): 0.328 ± 0.008
- protein stability index (Saccharomyces cerevisiae [1]; [4]): 0.4613 ± 0.0015
- protein stability index (Saccharomyces cerevisiae [1]; [5]): 0.354 ± 0.033
- protein stability index (Saccharomyces cerevisiae [1]; [6]): 0.508 ± 0.015
- protein stability index (Saccharomyces cerevisiae [1]; [7]): 0.11 ± 0.016
- protein stability index (Saccharomyces cerevisiae [1]; [8]): 0.137 ± 0.016
- protein stability index (Saccharomyces cerevisiae [1]; [9]): 0.114 ± 0.02
- protein stability index (Saccharomyces cerevisiae [2]): 0.218 ± 0.0055

Sequence: GPHATYLYLVLA
- protein stability index (Saccharomyces cerevisiae [1]; [3]): 0.199 ± 0.022
- protein stability index (Saccharomyces cerevisiae [1]; [4]): 0.258 ± 0.022
- protein stability index (Saccharomyces cerevisiae [1]; [5]): 0.226 ± 0.039
- protein stability index (Saccharomyces cerevisiae [1]; [6]): 0.34 ± 0.0059
- protein stability index (Saccharomyces cerevisiae [1]; [7]): 0.1579 ± 0.00054
- protein stability index (Saccharomyces cerevisiae [1]; [8]): 0.177 ± 0.018
- protein stability index (Saccharomyces cerevisiae [1]; [9]): 0.22866 ± 0.00017
- protein stability index (Saccharomyces cerevisiae [2]): 0.2383 ± 0.00092

Sequence: GPRRARLPNFLA
- protein stability index (Saccharomyces cerevisiae [1]; [3]): 0.445 ± 0.013
- protein stability index (Saccharomyces cerevisiae [1]; [4]): 0.684 ± 0.031
- protein stability index (Saccharomyces cerevisiae [1]; [5]): 0.657 ± 0.018
- protein stability index (Saccharomyces cerevisiae [1]; [6]): 0.715 ± 0.018
- protein stability index (Saccharomyces cerevisiae [1]; [7]): 0.0795 ± 0.025
- protein stability index (Saccharomyces cerevisiae [1]; [8]): 0.0947 ± 0.025
- protein stability index (Saccharomyces cerevisiae [1]; [9]): 0.123 ± 0.022
- protein stability index (Saccharomyces cerevisiae [2]): 0.085 ± 0.012

Sequence: GQSRLVADLRQV
- protein stability index (Saccharomyces cerevisiae [1]; [3]): 0.635 ± 0.055
- protein stability index (Saccharomyces cerevisiae [1]; [4]): 0.6934 ± 0.0012
- protein stability index (Saccharomyces cerevisiae [1]; [5]): 0.646 ± 0.012
- protein stability index (Saccharomyces cerevisiae [1]; [6]): 0.678 ± 0.018
- protein stability index (Saccharomyces cerevisiae [1]; [7]): 0.676 ± 0.035
- protein stability index (Saccharomyces cerevisiae [1]; [8]): 0.676 ± 0.0081
- protein stability index (Saccharomyces cerevisiae [1]; [9]): 0.675 ± 0.025
- protein stability index (Saccharomyces cerevisiae [2]): 0.7147 ± 0.00089

Sequence: GRGFVLSVAVVA
- protein stability index (Saccharomyces cerevisiae [1]; [3]): 0.404 ± 0.011
- protein stability index (Saccharomyces cerevisiae [1]; [4]): 0.453 ± 0.031
- protein stability index (Saccharomyces cerevisiae [1]; [5]): 0.395 ± 0.034
- protein stability index (Saccharomyces cerevisiae [1]; [6]): 0.502 ± 0.0094
- protein stability index (Saccharomyces cerevisiae [1]; [7]): 0.363 ± 0.0089
- protein stability index (Saccharomyces cerevisiae [1]; [8]): 0.395 ± 0.021
- protein stability index (Saccharomyces cerevisiae [1]; [9]): 0.467 ± 0.0049
- protein stability index (Saccharomyces cerevisiae [2]): 0.435 ± 0.012

Sequence: GRVCWVVLAGLV
- protein stability index (Saccharomyces cerevisiae [1]; [3]): 0.593 ± 0.04
- protein stability index (Saccharomyces cerevisiae [1]; [4]): 0.591 ± 0.053
- protein stability index (Saccharomyces cerevisiae [1]; [5]): 0.441 ± 0.026
- protein stability index (Saccharomyces cerevisiae [1]; [6]): 0.6202 ± 0.0013
- protein stability index (Saccharomyces cerevisiae [1]; [7]): 0.307 ± 0.01
- protein stability index (Saccharomyces cerevisiae [1]; [8]): 0.341 ± 0.026
- protein stability index (Saccharomyces cerevisiae [1]; [9]): 0.5394 ± 0.0042
- protein stability index (Saccharomyces cerevisiae [2]): 0.429 ± 0.0095

Sequence: GTVRSLLKWRCS
- protein stability index (Saccharomyces cerevisiae [1]; [3]): 0.654 ± 0.051
- protein stability index (Saccharomyces cerevisiae [1]; [4]): 0.732 ± 0.0075
- protein stability index (Saccharomyces cerevisiae [1]; [5]): 0.651 ± 0.027
- protein stability index (Saccharomyces cerevisiae [1]; [6]): 0.7431 ± 0.0073
- protein stability index (Saccharomyces cerevisiae [1]; [7]): 0.148 ± 0.016
- protein stability index (Saccharomyces cerevisiae [1]; [8]): 0.192 ± 0.02
- protein stability index (Saccharomyces cerevisiae [1]; [9]): 0.384 ± 0.011
- protein stability index (Saccharomyces cerevisiae [2]): 0.3259 ± 0.00055

Sequence: GVCLGFICVGFC
- protein stability index (Saccharomyces cerevisiae [1]; [3]): 0.494 ± 0.028
- protein stability index (Saccharomyces cerevisiae [1]; [4]): 0.55 ± 0.0067
- protein stability index (Saccharomyces cerevisiae [1]; [5]): 0.359 ± 0.031
- protein stability index (Saccharomyces cerevisiae [1]; [6]): 0.576 ± 0.032
- protein stability index (Saccharomyces cerevisiae [1]; [7]): 0.343 ± 0.029
- protein stability index (Saccharomyces cerevisiae [1]; [8]): 0.362 ± 0.026
- protein stability index (Saccharomyces cerevisiae [1]; [9]): 0.522 ± 0.0075
- protein stability index (Saccharomyces cerevisiae [2]): 0.444 ± 0.018

Sequence: GVCWCVLFVVGC
- protein stability index (Saccharomyces cerevisiae [1]; [3]): 0.312 ± 0.012
- protein stability index (Saccharomyces cerevisiae [1]; [4]): 0.417 ± 0.059
- protein stability index (Saccharomyces cerevisiae [1]; [5]): 0.271 ± 0.027
- protein stability index (Saccharomyces cerevisiae [1]; [6]): 0.484 ± 0.006
- protein stability index (Saccharomyces cerevisiae [1]; [7]): 0.226 ± 0.012
- protein stability index (Saccharomyces cerevisiae [1]; [8]): 0.259 ± 0.02
- protein stability index (Saccharomyces cerevisiae [1]; [9]): 0.428 ± 0.052
- protein stability index (Saccharomyces cerevisiae [2]): 0.359 ± 0.013
